By EC50 is commonly meant the concentration needed to bring the measured effect to its halfway point. A low value points to a more potent agent.

For this assay, the target named is purified full-length EED (AlphaScreen) (UniProt O75530 1-441). Briefly: AlphaScreen or HTRF. On the technique in general: In Alpha technology, singlet oxygen from a donor bead excites a nearby acceptor bead.
Sequence of purified full-length EED (AlphaScreen) (O75530 whole entry): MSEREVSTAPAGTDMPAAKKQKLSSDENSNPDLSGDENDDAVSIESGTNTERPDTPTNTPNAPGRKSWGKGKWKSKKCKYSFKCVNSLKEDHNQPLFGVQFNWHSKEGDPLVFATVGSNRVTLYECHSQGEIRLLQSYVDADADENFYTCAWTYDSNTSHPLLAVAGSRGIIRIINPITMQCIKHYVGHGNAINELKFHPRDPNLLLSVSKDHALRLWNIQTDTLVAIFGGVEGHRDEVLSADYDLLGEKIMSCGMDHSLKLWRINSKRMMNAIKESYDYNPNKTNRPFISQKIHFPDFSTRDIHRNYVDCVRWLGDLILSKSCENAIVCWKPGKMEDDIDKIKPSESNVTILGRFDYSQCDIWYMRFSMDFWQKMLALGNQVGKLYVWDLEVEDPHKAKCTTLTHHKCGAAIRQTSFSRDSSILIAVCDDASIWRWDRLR

B1: unlabeled full-length EZH2 (AlphaScreen) (natural protein)
chain: not shown
As for B1, the EC50 amounted to 148 nM.

Source of the values: PMC4073494 (Nature communications, 2014).
